Source: the Human Domainome abundance scans (Beltran et al. 2025)
± gives the uncertainty stated by the source.

B1: Friend leukemia integration 1 transcription factor, residues 116 to 197; numbered along this chain, Q01543 (parent)
chain: NMTTNERRVIVPADPTLWTQEHVRQWLEWAIKEYSLMEIDTSFFQNMDGKELCKMNKEDFLRATTLYNTEVLLSHLSYLRES

Variants of: B1
Test: abundance fitness (aPCA) (normalised: wild type 0, dead -1); higher = more abundant; growth selection in yeast, the domain comes from the species named
Conditions: Homo sapiens

K54R and K54E are within error of each other in abundance fitness: -0.063 ± 0.078 for the first, 0.1 ± 0.094 for the second.

K54G and K54S are within error of each other in abundance fitness: -0.015 ± 0.075 for the first, -0.01 ± 0.07 for the second.

K54Q and K54L are within error of each other in abundance fitness: -0.057 ± 0.095 for the first, -0.017 ± 0.049 for the second.

First: K54M
Second: K54Y
The abundance fitness of the first is higher: 0.021 ± 0.073 for the first, -0.359 ± 0.16 for the second.

First: K54W
Second: K54V
The abundance fitness of the first is lower: -0.396 ± 0.075 for the first, -0.14 ± 0.063 for the second.

First: K54T
Second: K54P
The abundance fitness of the first is higher: -0.204 ± 0.085 for the first, -0.687 ± 0.16 for the second.

First: K54N
Second: K54H
The abundance fitness of the first is higher: 0.02 ± 0.18 for the first, -0.494 ± 0.26 for the second.

Compared with K54D, D48W is lower in abundance fitness: 0.098 ± 0.19 for the first, -0.82 ± 0.21 for the second.

D48I and D48P are within error of each other in abundance fitness: -0.391 ± 0.27 for the first, -0.295 ± 0.094 for the second.

Going from D48C to D48G, the abundance fitness rises from -0.388 ± 0.17 to -0.114 ± 0.094.

D48M and D48N are within error of each other in abundance fitness: -0.464 ± 0.12 for the first, -0.201 ± 0.25 for the second.

Going from D48V to D48H, the abundance fitness falls from 0.031 ± 0.08 to -0.366 ± 0.23.

D48K and D48T are within error of each other in abundance fitness: -0.227 ± 0.12 for the first, -0.04 ± 0.11 for the second.

Going from D48S to D48Q, the abundance fitness falls from -0.013 ± 0.074 to -0.205 ± 0.1.

Going from D48A to D48R, the abundance fitness falls from -0.118 ± 0.084 to -0.305 ± 0.082.

D48E and D48Y are within error of each other in abundance fitness: -0.222 ± 0.11 for the first, -0.358 ± 0.23 for the second.

E58C and E58G are within error of each other in abundance fitness: -0.11 ± 0.12 for the first, 0.028 ± 0.077 for the second.

Going from E58K to E58A, the abundance fitness rises from -0.162 ± 0.12 to 0.119 ± 0.069.

E58L and E58F are within error of each other in abundance fitness: -0.117 ± 0.054 for the first, -0.228 ± 0.23 for the second.

M55G and M55N are within error of each other in abundance fitness: -0.75 ± 0.083 for the first, -0.752 ± 0.48 for the second.

First: M55R
Second: M55Q
The abundance fitness of the first is lower: -0.444 ± 0.067 for the first, -0.158 ± 0.099 for the second.

First: M55P
Second: M55L
The abundance fitness of the first is lower: -0.784 ± 0.14 for the first, 0.011 ± 0.055 for the second.

First: M55V
Second: M55K
The abundance fitness of the first is lower: -0.331 ± 0.072 for the first, 0.021 ± 0.14 for the second.

M55C and M55W are within error of each other in abundance fitness: 0.007 ± 0.15 for the first, -0.04 ± 0.082 for the second.

M55Y and M55S are within error of each other in abundance fitness: -0.273 ± 0.21 for the first, -0.424 ± 0.082 for the second.

Compared with M55I, M55A is higher in abundance fitness: -0.381 ± 0.19 for the first, -0.119 ± 0.066 for the second.

Compared with M55T, M55E is lower in abundance fitness: -0.204 ± 0.11 for the first, -0.805 ± 0.19 for the second.

First: E51T
Second: E51W
The abundance fitness of the first is higher: 0.034 ± 0.082 for the first, -0.477 ± 0.08 for the second.

E51F and E51G are within error of each other in abundance fitness: -0.243 ± 0.22 for the first, -0.058 ± 0.068 for the second.

E51Q and E51K are within error of each other in abundance fitness: 0.03 ± 0.08 for the first, -0.01 ± 0.094 for the second.

E51R and E51V are within error of each other in abundance fitness: -0.084 ± 0.065 for the first, -0.127 ± 0.078 for the second.

E51C and E51D are within error of each other in abundance fitness: -0.219 ± 0.18 for the first, -0.332 ± 0.28 for the second.

E51I and E51L are within error of each other in abundance fitness: -0.259 ± 0.23 for the first, -0.135 ± 0.051 for the second.

E51P and E51Y are within error of each other in abundance fitness: -0.766 ± 0.17 for the first, -0.679 ± 0.33 for the second.

E51H and E51M are within error of each other in abundance fitness: 0.068 ± 0.12 for the first, -0.1 ± 0.11 for the second.

K57A and K57Y are within error of each other in abundance fitness: -0.268 ± 0.11 for the first, -0.145 ± 0.14 for the second.

K57Q and K57C are within error of each other in abundance fitness: 0.043 ± 0.074 for the first, -0.212 ± 0.31 for the second.

Compared with K57T, K57S is lower in abundance fitness: -0.086 ± 0.096 for the first, -0.319 ± 0.084 for the second.

K57L and K57W are within error of each other in abundance fitness: -0.213 ± 0.079 for the first, -0.124 ± 0.11 for the second.

K57R and K57N are within error of each other in abundance fitness: -0.052 ± 0.072 for the first, -0.071 ± 0.12 for the second.

Compared with K57V, K57F is lower in abundance fitness: -0.013 ± 0.067 for the first, -0.451 ± 0.21 for the second.

First: K57E
Second: K57G
The abundance fitness of the first is higher: -0.135 ± 0.077 for the first, -0.433 ± 0.088 for the second.

K57D and K57H are within error of each other in abundance fitness: -0.312 ± 0.16 for the first, -0.52 ± 0.24 for the second.

K57M and K50V are within error of each other in abundance fitness: 0.008 ± 0.091 for the first, -0.159 ± 0.1 for the second.

Compared with K50W, K50Q is higher in abundance fitness: -0.239 ± 0.078 for the first, 0.013 ± 0.1 for the second.

K50I and K50H are within error of each other in abundance fitness: -0.113 ± 0.18 for the first, 0.031 ± 0.067 for the second.

K50G and K50N are within error of each other in abundance fitness: -0.059 ± 0.086 for the first, 0.068 ± 0.15 for the second.

K50M and K50C are within error of each other in abundance fitness: -0.087 ± 0.12 for the first, -0.281 ± 0.23 for the second.

K50D and K50Y are within error of each other in abundance fitness: -0.093 ± 0.14 for the first, 0.249 ± 0.23 for the second.

First: K50T
Second: K50L
The abundance fitness of the first is higher: 0.212 ± 0.079 for the first, -0.12 ± 0.072 for the second.

K50P and K50E are within error of each other in abundance fitness: 0.013 ± 0.096 for the first, 0.058 ± 0.1 for the second.

K50S and K50F are within error of each other in abundance fitness: -0.032 ± 0.077 for the first, -0.064 ± 0.053 for the second.

First: L52R
Second: L52V
The abundance fitness of the first is lower: -1.03 ± 0.16 for the first, -0.192 ± 0.071 for the second.

L52P and L52E are within error of each other in abundance fitness: -0.627 ± 0.13 for the first, -0.976 ± 0.29 for the second.

Going from L52F to L52T, the abundance fitness falls from -0.072 ± 0.12 to -0.928 ± 0.29.

Compared with L52M, L52G is lower in abundance fitness: -0.277 ± 0.17 for the first, -0.915 ± 0.15 for the second.

L52W and L52C are within error of each other in abundance fitness: -0.943 ± 0.21 for the first, -0.692 ± 0.38 for the second.

L52A and L52I are within error of each other in abundance fitness: -0.602 ± 0.26 for the first, -0.608 ± 0.35 for the second.

L52S and C53P are within error of each other in abundance fitness: -0.991 ± 0.18 for the first, -0.905 ± 0.17 for the second.

C53H and C53N are within error of each other in abundance fitness: -0.324 ± 0.31 for the first, -0.197 ± 0.12 for the second.

Compared with C53W, C53R is lower in abundance fitness: -0.463 ± 0.14 for the first, -0.72 ± 0.11 for the second.

Compared with C53K, C53G is higher in abundance fitness: -0.553 ± 0.16 for the first, -0.142 ± 0.077 for the second.

First: C53E
Second: C53L
The abundance fitness of the first is lower: -0.409 ± 0.13 for the first, 0.153 ± 0.047 for the second.

C53Q and C53Y are within error of each other in abundance fitness: -0.099 ± 0.092 for the first, -0.377 ± 0.23 for the second.

Compared with C53S, C53T is higher in abundance fitness: -0.213 ± 0.073 for the first, -0.048 ± 0.088 for the second.

C53V and C53F are within error of each other in abundance fitness: -0.017 ± 0.07 for the first, 0.031 ± 0.13 for the second.

C53M and C53A are within error of each other in abundance fitness: -0.134 ± 0.092 for the first, -0.222 ± 0.096 for the second.

First: M47Y
Second: M47T
The abundance fitness of the first is higher: 0.092 ± 0.17 for the first, -0.344 ± 0.061 for the second.

Compared with M47V, M47W is lower in abundance fitness: -0.093 ± 0.072 for the first, -0.417 ± 0.1 for the second.

N56Q and N56H are within error of each other in abundance fitness: -0.043 ± 0.076 for the first, 0.12 ± 0.11 for the second.

N56M and N56K are within error of each other in abundance fitness: -0.002 ± 0.099 for the first, 0.125 ± 0.14 for the second.

N56A and N56C are within error of each other in abundance fitness: -0.091 ± 0.088 for the first, -0.157 ± 0.17 for the second.

N56I and N56D are within error of each other in abundance fitness: -0.247 ± 0.11 for the first, -0.033 ± 0.13 for the second.

Compared with N56R, N56G is higher in abundance fitness: -0.226 ± 0.071 for the first, 0.049 ± 0.074 for the second.

N56S and N56P are within error of each other in abundance fitness: -0.043 ± 0.059 for the first, -0.155 ± 0.071 for the second.

Compared with N56V, N56Y is lower in abundance fitness: -0.054 ± 0.072 for the first, -0.54 ± 0.25 for the second.

N56W and N56L are within error of each other in abundance fitness: -0.221 ± 0.087 for the first, -0.129 ± 0.052 for the second.

Compared with N56F, N56E is higher in abundance fitness: -0.515 ± 0.21 for the first, 0.178 ± 0.1 for the second.

First: G49A
Second: G49L
The abundance fitness of the first is lower: -1.01 ± 0.15 for the first, -0.579 ± 0.093 for the second.

G49S and G49I are within error of each other in abundance fitness: -0.943 ± 0.16 for the first, -0.506 ± 0.28 for the second.

G49K and G49Q are within error of each other in abundance fitness: -0.994 ± 0.42 for the first, -0.977 ± 0.49 for the second.

G49M and G49W are within error of each other in abundance fitness: -0.965 ± 0.38 for the first, -0.777 ± 0.25 for the second.

G49R and G49T are within error of each other in abundance fitness: -0.889 ± 0.13 for the first, -0.919 ± 0.27 for the second.

Variant G49V has an abundance fitness of -0.755 ± 0.14.
